Biological target: synthetic wild-type CRN2 coiled coil peptide (human), Q9ULV4
Experiment: SEC-MALS

stoichiometry N: 3
Binder: VQNEAKLDEILKEIKSIKDTICNQDERISKLEQQMAKIAA (modifications not checked) [synthetic wild-type CRN2 coiled coil peptide, Q9ULV4 442-472]
